According to patent publication US20260201064A1 (ISU ABXIS, published 2026):
Where a chain is given by its changes, count along the chain named.

B1: #9104v-L11 (antibody, human IgG4 S228P, lambda, V domains shown)
VH: EVQLLESGGGLVQPGGSLRLSCAASGFTFSNYYMSWVRQAPGKGLEWVSGIYYGSGNIYYADSVKGRFTISRDNSKNTLYLQMNSLRAEDTAVYYCARDTPGFDYWGQGTLVTVSS
VL: QSVLTQPPSASGTPGQRVTISCTGSSSNIGNNAVNWYQQLPGTAPKLLIYYDIFQPSGVPDRFSGSKSGTSASLAISGLRSEDEADYYCGAWDYSLSAYVFGGGTKLTVLG
notes: Full-length IgG, lambda
B2: #9104v-L15 (antibody, human IgG4 S228P, lambda, V domains shown)
VH: B1 VH
VL: B1 VL with F54H, Q55R, S57Y
notes: Full-length IgG, lambda
B3: #9104v-L12 (antibody, human IgG4 S228P, lambda, V domains shown)
VH: B1 VH
VL: B1 VL with Q55R, S57D
notes: Full-length IgG, lambda
B4: #9104a-B8 (antibody, human IgG4 S228P, lambda, V domains shown)
VH: B1 VH with I51V, G54P, I58P
VL: B1 VL with I53M, Q55R, S57N
notes: VH of #9104v-H33 with VL of #9104v-L21; full-length IgG, lambda
B5: #9104a-D7 (antibody, human IgG4 S228P, lambda, V domains shown)
VH: B1 VH with I51V, N57T, I58P
VL: B1 VL with I53Y, Q55S, P56H
notes: VH of #9104v-H31 with VL of #9104v-L64; full-length IgG, lambda
B6: #9104a-C5 (antibody, human IgG4 S228P, lambda, V domains shown)
VH: B1 VH with N57V, I58P
VL: B1 VL with I53Q, Q55R
notes: VH of #9104v-H19 with VL of #9104v-L23; full-length IgG, lambda
B7: #9104a-E3 (antibody, human IgG4 S228P, lambda, V domains shown)
VH: B1 VH with N57I, I58P, D62N
VL: B1 VL with I53Y, F54Y, P56S
notes: VH of #9104v-H13 with VL of #9104v-L65; full-length IgG, lambda
B8: #9104a-C6 (antibody, human IgG4 S228P, lambda, V domains shown)
VH: B1 VH with I51T, G54D, N57Y, I58V
VL: B1 VL with I53Q, Q55R
notes: VH of #9104v-H27 with VL of #9104v-L23; full-length IgG, lambda
B9: #9104a-C3 (antibody, human IgG4 S228P, lambda, V domains shown)
VH: B1 VH with N57I, I58P, D62N
VL: B1 VL with I53Q, Q55R
notes: VH of #9104v-H13 with VL of #9104v-L23; full-length IgG, lambda
B10: #9104a-E4 (antibody, human IgG4 S228P, lambda, V domains shown)
VH: B1 VH with Q39R, N57T, I58P, D62A
VL: B1 VL with I53Y, F54Y, P56S
notes: VH of #9104v-H17 with VL of #9104v-L65; full-length IgG, lambda
B11: #9104a-D4 (antibody, human IgG4 S228P, lambda, V domains shown)
VH: B1 VH with Q39R, N57T, I58P, D62A
VL: B1 VL with I53Y, Q55S, P56H
notes: VH of #9104v-H17 with VL of #9104v-L64; full-length IgG, lambda
B12: #9104a-C2 (antibody, human IgG4 S228P, lambda, V domains shown)
VH: B1 VH with N57I, I58P, G66E
VL: B1 VL with I53Q, Q55R
notes: VH of #9104v-H11 with VL of #9104v-L23; full-length IgG, lambda
B13: #9104a-C1 (antibody, human IgG4 S228P, lambda, V domains shown)
VH: B1 VH with S55N, N57I, I58P, G66D
VL: B1 VL with I53Q, Q55R
notes: VH of #9104v-H10 with VL of #9104v-L23; full-length IgG, lambda
B14: #9104a-E5 (antibody, human IgG4 S228P, lambda, V domains shown)
VH: B1 VH with N57V, I58P
VL: B1 VL with I53Y, F54Y, P56S
notes: VH of #9104v-H19 with VL of #9104v-L65; full-length IgG, lambda
B15: #9104a-D6 (antibody, human IgG4 S228P, lambda, V domains shown)
VH: B1 VH with I51T, G54D, N57Y, I58V
VL: B1 VL with I53Y, Q55S, P56H
notes: VH of #9104v-H27 with VL of #9104v-L64; full-length IgG, lambda
B16: #9104a-E8 (antibody, human IgG4 S228P, lambda, V domains shown)
VH: B1 VH with I51V, G54P, I58P
VL: B1 VL with I53Y, F54Y, P56S
notes: VH of #9104v-H33 with VL of #9104v-L65; full-length IgG, lambda
B17: #9104a-C4 (antibody, human IgG4 S228P, lambda, V domains shown)
VH: B1 VH with Q39R, N57T, I58P, D62A
VL: B1 VL with I53Q, Q55R
notes: VH of #9104v-H17 with VL of #9104v-L23; full-length IgG, lambda
B18: #9104a-D1 (antibody, human IgG4 S228P, lambda, V domains shown)
VH: B1 VH with S55N, N57I, I58P, G66D
VL: B1 VL with I53Y, Q55S, P56H
notes: VH of #9104v-H10 with VL of #9104v-L64; full-length IgG, lambda
B19: #9104a-E1 (antibody, human IgG4 S228P, lambda, V domains shown)
VH: B1 VH with S55N, N57I, I58P, G66D
VL: B1 VL with I53Y, F54Y, P56S
notes: VH of #9104v-H10 with VL of #9104v-L65; full-length IgG, lambda
B20: #9104a-E7 (antibody, human IgG4 S228P, lambda, V domains shown)
VH: B1 VH with I51V, N57T, I58P
VL: B1 VL with I53Y, F54Y, P56S
notes: VH of #9104v-H31 with VL of #9104v-L65; full-length IgG, lambda
B21: #9104a-D8 (antibody, human IgG4 S228P, lambda, V domains shown)
VH: B1 VH with I51V, G54P, I58P
VL: B1 VL with I53Y, Q55S, P56H
notes: VH of #9104v-H33 with VL of #9104v-L64; full-length IgG, lambda
B22: #9104a-D5 (antibody, human IgG4 S228P, lambda, V domains shown)
VH: B1 VH with N57V, I58P
VL: B1 VL with I53Y, Q55S, P56H
notes: VH of #9104v-H19 with VL of #9104v-L64; full-length IgG, lambda
B23: #9104a-C7 (antibody, human IgG4 S228P, lambda, V domains shown)
VH: B1 VH with I51V, N57T, I58P
VL: B1 VL with I53Q, Q55R
notes: VH of #9104v-H31 with VL of #9104v-L23; full-length IgG, lambda
B24: #9104a-E2 (antibody, human IgG4 S228P, lambda, V domains shown)
VH: B1 VH with N57I, I58P, G66E
VL: B1 VL with I53Y, F54Y, P56S
notes: VH of #9104v-H11 with VL of #9104v-L65; full-length IgG, lambda
B25: #9104a-E6 (antibody, human IgG4 S228P, lambda, V domains shown)
VH: B1 VH with I51T, G54D, N57Y, I58V
VL: B1 VL with I53Y, F54Y, P56S
notes: VH of #9104v-H27 with VL of #9104v-L65; full-length IgG, lambda
B26: #9104a-D2 (antibody, human IgG4 S228P, lambda, V domains shown)
VH: B1 VH with N57I, I58P, G66E
VL: B1 VL with I53Y, Q55S, P56H
notes: VH of #9104v-H11 with VL of #9104v-L64; full-length IgG, lambda
B27: #9104a-D3 (antibody, human IgG4 S228P, lambda, V domains shown)
VH: B1 VH with N57I, I58P, D62N
VL: B1 VL with I53Y, Q55S, P56H
notes: VH of #9104v-H13 with VL of #9104v-L64; full-length IgG, lambda

biological target: T1, recombinant human ASM protein (human, UniProt P17405 47-630); assay: BLI (Octet), antibody on AHC sensor
T1 construct: Recombinant human ASM in solution; also called acid sphingomyelinase (ASM) protein
T1 sequence: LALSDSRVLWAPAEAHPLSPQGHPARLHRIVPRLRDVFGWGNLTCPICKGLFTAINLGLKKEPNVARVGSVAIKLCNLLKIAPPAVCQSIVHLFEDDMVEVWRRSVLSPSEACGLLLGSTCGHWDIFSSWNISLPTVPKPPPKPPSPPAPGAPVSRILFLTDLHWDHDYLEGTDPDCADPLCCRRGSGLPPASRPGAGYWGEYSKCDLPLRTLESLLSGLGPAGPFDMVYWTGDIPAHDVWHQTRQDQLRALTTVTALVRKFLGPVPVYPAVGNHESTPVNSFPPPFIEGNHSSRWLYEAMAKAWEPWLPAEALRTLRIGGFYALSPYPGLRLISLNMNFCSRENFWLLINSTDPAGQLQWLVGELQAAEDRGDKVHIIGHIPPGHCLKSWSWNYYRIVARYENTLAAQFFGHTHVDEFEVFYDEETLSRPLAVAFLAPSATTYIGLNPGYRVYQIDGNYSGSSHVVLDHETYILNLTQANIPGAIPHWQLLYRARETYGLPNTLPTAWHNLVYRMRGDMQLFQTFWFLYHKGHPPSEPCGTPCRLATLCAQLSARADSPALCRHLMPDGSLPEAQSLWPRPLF
Experimental: (§1) The binding affinity, to the ASM protein, of the produced antibodies specifically binding to the ASM protein and the interactive dynamics therebetween were measured using an Octet® QK384 system (Pall Life Sciences).
(§2) First, an antibody specifically binding to the ASM protein produced in Example 1 was captured using an anti-human IgG Fc capture (AHC) biosensor, and 1.25, 2.5, 5, 10, or 20 nM recombinant human ASM protein solution was added thereto. […] The association constant (Kₐ), dissociation constant (Kd), and equilibrium dissociation constant (KD) for each antibody were determined using Octet® analysis software (Pall Life® Sciences). As a result, the binding affinities, to the human ASM protein, of the antibodies with mutations in the heavy chain CDR regions of the antibody #9104 as depicted in Table 1 are shown in Table 5, and the binding affinities, to the human ASM protein, of the antibodies with mutations of the light chain CDR regions in the antibody #9104 as depicted in Table 2 are shown in Table 6.

Binder | Kd | koff | kon
B1 | 0.768 nM | 0.000199 s⁻¹ | 259000 M⁻¹ s⁻¹
B2 | 0.992 nM | 0.000273 s⁻¹ | 275000 M⁻¹ s⁻¹
B3 | 0.718 nM | 0.000159 s⁻¹ | 221000 M⁻¹ s⁻¹

biological target: T1, recombinant human ASM protein; assay: BLI (Octet), antibody on AHC sensor; remark: another data set of the same source
Experimental: as §1, §2
After the small-scale expression in the ExpiCHO cell line as described above, the binding affinity to the human ASM protein was investigated as described in Experimental Example 1. Specifically, the antibody produced by a combination of #9104v-H33 heavy chain variable region and #9104v-L23 light chain variable region was not expressed and thus excluded in the analysis of binding affinity to ASM protein.

Binder | Kd | koff | kon
B4 | 0.28 nM | 6.44e-05 s⁻¹ | 230000 M⁻¹ s⁻¹
B5 | 0.198 nM | 5.69e-05 s⁻¹ | 288000 M⁻¹ s⁻¹
B6 | 0.192 nM | 6.46e-05 s⁻¹ | 337000 M⁻¹ s⁻¹
B7 | 0.28 nM | 5.74e-05 s⁻¹ | 205000 M⁻¹ s⁻¹
B8 | 0.928 nM | 0.000109 s⁻¹ | 117000 M⁻¹ s⁻¹
B9 | 0.176 nM | 4.55e-05 s⁻¹ | 259000 M⁻¹ s⁻¹
B10 | 0.197 nM | 4.15e-05 s⁻¹ | 210000 M⁻¹ s⁻¹
B11 | 0.206 nM | 5.09e-05 s⁻¹ | 248000 M⁻¹ s⁻¹
B12 | 0.172 nM | 5.28e-05 s⁻¹ | 306000 M⁻¹ s⁻¹
B13 | 0.139 nM | 3.76e-05 s⁻¹ | 271000 M⁻¹ s⁻¹
B14 | 0.273 nM | 6.36e-05 s⁻¹ | 234000 M⁻¹ s⁻¹
B15 | 1.07 nM | 8.7e-05 s⁻¹ | 81200 M⁻¹ s⁻¹
B16 | 0.38 nM | 5.66e-05 s⁻¹ | 149000 M⁻¹ s⁻¹
B17 | 0.203 nM | 6.42e-05 s⁻¹ | 317000 M⁻¹ s⁻¹
B18 | 0.0948 nM | 2.79e-05 s⁻¹ | 294000 M⁻¹ s⁻¹
B19 | 0.289 nM | 6.21e-05 s⁻¹ | 215000 M⁻¹ s⁻¹
B20 | 0.211 nM | 4.59e-05 s⁻¹ | 218000 M⁻¹ s⁻¹
B21 | 0.177 nM | 3.33e-05 s⁻¹ | 188000 M⁻¹ s⁻¹
B22 | 0.13 nM | 3.39e-05 s⁻¹ | 261000 M⁻¹ s⁻¹
B23 | 0.152 nM | 4.56e-05 s⁻¹ | 300000 M⁻¹ s⁻¹
B24 | 0.212 nM | 4.27e-05 s⁻¹ | 202000 M⁻¹ s⁻¹
B25 | 1.19 nM | 7.77e-05 s⁻¹ | 65500 M⁻¹ s⁻¹
B26 | 0.149 nM | 5.22e-05 s⁻¹ | 351000 M⁻¹ s⁻¹
B27 | 0.229 nM | 6.73e-05 s⁻¹ | 294000 M⁻¹ s⁻¹
